This is an account of results in patent EP4703390A1.

Assay [1] has as its target EGFR and c-Met on the surface of tumor cells (human) (UniProt P00533). Briefly: cell-based or functional assay.
Assay [2] has the same target. Briefly: flow cytometry, A431 cells; hIgG1 negative control, EC50 could not be fitted. Background: Flow cytometry measures light scatter and fluorescence of single cells or particles in a stream.
Assay [3] has the same target. Briefly: flow cytometry, NCI-H1975 cells; hIgG1 negative control, EC50 could not be fitted.
Assay [4] has the same target. Briefly: flow cytometry, NCI-H1993 cells; hIgG1 negative control, EC50 could not be fitted.

On to “hIgG1 (Biointron, Cat. No. B117901) (antibody)”, for which, in assay [1], the endocytic activity Top(MFI), A431 cells (negative control) was 118000 MFI. The substance also displayed an endocytic activity Top(MFI), NCI-H441 cells (negative control) in assay [1] of 97500 MFI. The substance also showed an endocytic activity Top(MFI), NCI-H1975 cells (negative control) in assay [1] of 110000 MFI. In addition, the Top(MFI) in assay [2] was determined as 168000 MFI; in assay [3], 38700 MFI; in assay [4], 31200 MFI.
